Results as given in paper PMC5587847, “IPA1 functions as a downstream transcription factor repressed by D53 in strigolactone signaling in rice” (Cell Research, 2017).

Biological target: T1, HisTrx-D53 (rice (Oryza sativa L.), UniProt Q2RBP2 1-1131)
T1 construct: DWARF 53 (D53), rice; full-length CDS in an E. coli expression vector (pDEST51); also called HisTrx-D53 fusion protein; source: E. coli, purified
T1 sequence (looked up): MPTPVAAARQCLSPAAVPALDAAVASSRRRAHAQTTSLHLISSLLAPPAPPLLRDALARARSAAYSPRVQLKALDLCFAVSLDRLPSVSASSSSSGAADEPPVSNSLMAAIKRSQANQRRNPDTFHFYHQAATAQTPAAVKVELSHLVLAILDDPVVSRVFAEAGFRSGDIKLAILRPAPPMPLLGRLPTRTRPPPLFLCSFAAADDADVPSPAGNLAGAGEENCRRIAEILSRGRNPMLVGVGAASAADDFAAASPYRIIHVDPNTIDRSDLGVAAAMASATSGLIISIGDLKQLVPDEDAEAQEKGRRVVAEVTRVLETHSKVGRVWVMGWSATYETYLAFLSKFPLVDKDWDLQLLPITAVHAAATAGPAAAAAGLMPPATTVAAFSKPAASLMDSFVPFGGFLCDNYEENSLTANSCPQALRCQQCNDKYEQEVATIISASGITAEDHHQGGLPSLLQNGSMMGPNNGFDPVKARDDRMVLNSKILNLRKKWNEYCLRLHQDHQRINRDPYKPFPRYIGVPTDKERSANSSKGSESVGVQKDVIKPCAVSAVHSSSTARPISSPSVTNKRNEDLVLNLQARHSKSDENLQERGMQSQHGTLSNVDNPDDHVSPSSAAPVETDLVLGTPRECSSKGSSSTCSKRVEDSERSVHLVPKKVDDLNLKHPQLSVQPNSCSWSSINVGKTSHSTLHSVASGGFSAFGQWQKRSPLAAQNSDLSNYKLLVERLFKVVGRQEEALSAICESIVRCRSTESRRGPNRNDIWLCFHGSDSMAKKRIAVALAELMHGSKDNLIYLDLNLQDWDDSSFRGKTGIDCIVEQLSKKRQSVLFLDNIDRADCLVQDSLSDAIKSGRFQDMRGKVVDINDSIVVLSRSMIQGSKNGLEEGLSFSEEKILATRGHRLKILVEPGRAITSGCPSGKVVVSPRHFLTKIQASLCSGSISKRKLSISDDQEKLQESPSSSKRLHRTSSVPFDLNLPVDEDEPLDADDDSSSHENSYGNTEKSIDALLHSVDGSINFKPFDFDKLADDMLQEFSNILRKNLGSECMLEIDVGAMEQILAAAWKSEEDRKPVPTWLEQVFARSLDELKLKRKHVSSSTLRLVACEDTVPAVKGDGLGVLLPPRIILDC
Experiment: pull-down; GST pull-down with HisTrx-D53 and GST-IPA1, both purified from bacteria; D53 detected by anti-D53
Details: both partners purified

B1: GST-IPA1 (natural protein, rice (Oryza sativa L.), UniProt Q7EXZ2 1-417, looked up)
chain: MEMASGGGAAAAAGGGVGGSGGGGGGGDEHRQLHGLKFGKKIYFEDAAAAAGGGGTGSGSGSASAAPPSSSSKAAGGGRGGGGKNKGKGVAAAAPPPPPPPPRCQVEGCGADLSGIKNYYCRHKVCFMHSKAPRVVVAGLEQRFCQQCSRFHLLPEFDQGKRSCRRRLAGHNERRRRPQTPLASRYGRLAASVGEHRRFRSFTLDFSYPRVPSSVRNAWPAIQPGDRISGGIQWHRNVAPHGHSSAVAGYGANTYSGQGSSSSGPPVFAGPNLPPGGCLAGVGAATDSSCALSLLSTQPWDTTTHSAAASHNQAAAMSTTTSFDGNPVAPSAMAGSYMAPSPWTGSRGHEGGGRSVAHQLPHEVSLDEVHPGPSHHAHFSGELELALQGNGPAPAPRIDPGSGSTFDQTSNTMDWSL
notes: Ideal Plant Architecture 1 (IPA1, SPL14), rice; full-length CDS in pGEX-6p-1; source: E. coli (pGEX-6p-1), purified
- binding result: binds
